Experimental data taken from the nanobody polyreactivity screen of Harvey et al. (2022).

Assay: yeast display, Sf9 membrane polyspecificity reagent, FACS + sequencing; frameworks hold sequencing errors
Summary of the method: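 In a synthetic yeast display library (Saccharomyces cerevisiae BJ5465), nanobody expression was induced with galactose for 36–48 hours. FACS gates were set low and high (top ~1%) using anti-HA fluorescence for expression and streptavidin fluorescence for binding of the Sf9 membrane reagent. Each polyreactivity label is drawn from the gate of origin.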

Row | Sequence | polyreactivity (PSR sort gate)
1 | QVQLVESGGGLVQAGGSLRLSCAASGFIFPRNAMGWYRQAPGKERELVAGITRGGSTNYADSVKGRFTISRDNAKNTVYLQMNSLKPEDTAVYYCAAKSYNYNRPYGWREYDYWGQGTQVTVSS | high polyreactivity
2 | QVQLVESGGGLVQAGVSLRLSCAASGLTFGAYAMGWYRQAPGKERELVAAINVSGGSTYYADSVKGRFTISRDNAKNTVYLQMNSLKPEDTAVYYCNAGLVLGGIFIPLYDYWGQGTQVTVSS | high polyreactivity
3 | QVQLVESGGGLVQAGGSLRLSCAASGFNFGGNAMGWYRQAPGKERELVAAISGSGGSTYYADSVKGRFTISRDNAKNTVYLQMNSLKPEDTAVYYCAVKFPPRKSYGYYYWGQGTQVTVSS | high polyreactivity
4 | QVQLLESGGGLVQAGGSLRLSCAASGFIFNHYAMGWYRQAPGKEREFVAAISWSGGSTYYADSVKGRFTISRDNAKNTVYLQMNSLKPEDTAVYYCAASYNGLWHGDYDYWGQGTQVTVSS | low polyreactivity
5 | QVQLVVSGGGLVQAGGSLRLSCAASGITFFPYAMGWYRQAPGKERLLVASISDRGGTNYADSVKGRFTISRDNAKNTVYLQMNSLKPEDTAVYYSASDASTYAYYGGDYWGQGTQVTVSS | low polyreactivity
6 | QVQLVESGGGLVQAGGSLRLSFAASGRTFGGYTMGWYRQAPGKERELVAAITWNGGRTYYADSVKGRFTISRDNAKNTVYLQMNILKPEDTAVYFCAVRIRLRRARLSYDYWGQGTQVTVSS | high polyreactivity
7 | QVQLVESGGGLVQAGGSLRLSCAASGRTIRWNDMGWYRQAPGKERELVAAITSRGGSTYYADSVKGRFTISRDNAMNTVYFQMNSLKPEDTAVYYCAKQPKPPPVTGYDYWGQGSQVTVSS | high polyreactivity
8 | QVQLVESGGGLVQAGGSLRLSCAASGRTFRYYAMGWYRQAPGKERELVAAISSRGNTYYADSVKGRFTISRDNAKNTVYLQLNSLKPEDTAVYYCAAYVYRVQYDFVYWGQGTQVTVSS | high polyreactivity
9 | QVQLVESGGGLVQAGGSLRLSRAASGSTLSLYAMGWYRQAPGKERELVAAITSSGGTYYADSVKGRFTISRDNAKNTVYLQMNSLKPEDTAVYYCAADPRSYFTSEYWGQGTQVTVSS | high polyreactivity
10 | QVQLVESGGGLFQAGGSLRLSCAASGLTFQRYDMGWYRQAPVKEIELVAAINYSGGRTYYADSVKGRFTISRDNAKNTVYLQMNSLKPEDTAVYYCAARVRNTYVYQSWDGMYYWGQGTQVTVSS | high polyreactivity
11 | EVQLVESGGGLDQAGGSLRLICAASARTFIWNAMGWYRQEPGKERDLVAAITRNGDSTYYADSVKGRFTISRDNAKNTVYLQMNRLKPEDTAVYYCAAYSRVFVYRTVGNYGWMNYWGQGTQVTVSS | high polyreactivity
12 | QVQLVESGGGLVQAGGSLRVSCAASGIIFGSYPMGWYRQAPGTERELVATISFSGGTTNYADSVKGRFPISRDNATTPVYLQMNSLTPEDTAVYYCAARPAPATGKLDYWGQGTQETVSS | low polyreactivity
13 | QVQLVESGGGLVQAGGSLRLSCAASGSIFGENAMGRYRQAPGKERELVAAITSGGSTDYADSVKGRFTISRDNAKNTVYLQMNSLKPEDTAVYYCAASGRVGPGYWYDSWGQGTQVTVSS | low polyreactivity
14 | QVQLVESGGGLVQAGGSLRLRCAASGFTFGYNAMGWYRQAPGKERELVAAIYFSDGITYYADSVKGRFTISRDNAKNTVYLQMNSLKPEDTAVYYCAADLYFEYEYWGQGTQVTVSS | high polyreactivity
15 | QVQLVETGGGLVQAGGSLRLSCAPSGSTFYYYVMGWYRPPPGNERELVAAINSGGSTYYADSVKGRFTISRDNAKNTVYLQMNSLKPEDTAVYYCAKSWSYWYQYFYWGQGTQVTVSS | low polyreactivity
16 | QVQLVESGGGLVQAGGSLRLSCAASGFTFTYYTMGWYRPAPGKERELVAGISRSGGSTYYADSVKGRFTISRDNAKNTVYLQMNSLKPEDTAVYYCFPGKTRLYGYWGQGTQVTVSS | high polyreactivity
17 | QVQLVESGGGLVQAGGSLRLSCAASGYIFTPYAMGWYRQAPGKERELVAAITGSGSSTYYADSVKGRFTISRDNAKNTVYLQMNSLKPEDTAVYYCAADSYGFYGYYYYELEYWGQGTQVTVSS | low polyreactivity
18 | QVQLVESGGGLVQAGGSLRLSCAASGSIFFYYAMGWYRQAPGKERELVAAISYSDGTTYYADSVKGRFTISRDNAKNTVYLQMNSLKPEDTAVYYCAADLWVGLVSLWDGYVEYDYWGQGTQVTVSS | low polyreactivity
19 | QVQLVESGGGLVQAGGSLRLIFAASGIIFGRYPMGWYRPAPGKERELVAAITSGGSTSYADSVKGRFTISRDNAKNTVYLQMNSLKPEDTAVYYCAVVFVWGWPGYYWGQGTQVTVSS | high polyreactivity
20 | QVQLVESGGGLVQAGGSLRLSCAASGSTFYPYAMGWYRQAPGKERELVAAISSGGSTNYADSVKGRFTISRDNAKYTVYLQMNSLKPEDTAVYYCAAASGSRRHGYWGQGTQVTVSS | high polyreactivity
21 | QVQRVESGGALVQAGGSLRLSCAASGSTFYAYAMGWYRPAPGKERELVAAITYRDGRTYYADSVKGRFTISRDNAKNTVYLQMNRLKQEDTAVYYCARKTGFTVRRYDYWGHGTQVTVSS | high polyreactivity
22 | QVHLGESGGGLVQAGGSLRLSCAASGSIFYGYAMGWYRHAPGKERELVAAITRDGSTNYADSVKGRFTISRDNAKNTVYLQMNSLKPEDTAVYYCAADTRSRRLSLVRRDYWGQGTQVTVSS | high polyreactivity

Row | Sequence | polyreactivity (PSR sort gate)
23 | QVQLVESGGGFVQAGGSLRLSCAACGSTFATYGMGWYRQAPGKERELVADITSGGSTYYADSVKGRFTISRDNAKNTVYLQMNSLKPEDTAVYSCNAPYGGPYYIQYDYWGQGTQVTVSS | low polyreactivity
24 | QVQLVESGGGLGQAGGSLRLSCAASGRIFYSNVMGWYRQAHGKEREFVAAISGRTGGTYYADSVKGRFTISRDNAKNTVYLQMNSLKPEDTAVYYCAARVIYYYGSGPYDYWGQGTQVTVSS | low polyreactivity
25 | QVQLVESGGGLVQAGGSLRLSCAASGYTFYIYAMGWYRQAPGKERELVATISSSGGGTYYADSVKGRFTISRDNAKNTVYLQMNSLNPEDTAVYYCNADGWYWQAQGYDYWGQGTQVTVSS | low polyreactivity
26 | QVQLVESGGGLVQAGGSLRLSCAASGSIFGDYAMGWYRQAPVKERELVATITWIGGSTYYADSVKGRFTISRDNAKNTVYLQMNSLTPEDTAVYYCAATKYVDVKYYYWGQGTQVTVSS | low polyreactivity
27 | QVQLVESGGCLVQAGGSLRLSCAASGRIFSSYAMGWYRQAPGKERELVAAIRSSGDRTYYADSVKGRFTISRDNAKNTVYFQMNSLKPEDTAVYYCAADLRRFQSYYYWGQGTQVTVSS | high polyreactivity
28 | QVQLVESGGGLVQAGGSLRLSCAASGRIFLGNAMGWYRPAPGKERELVAAITNGGGSTYYADSVNGRFTISRDNAKNTVYLQMNSLKPEDTAVYYCAAQRWTVKYNYWGQGTQVTVSS | high polyreactivity
29 | QVQLVESGGGLVQAGGSLRLSCAASGSIFAFNAMGWYRQAPGKERELVAAITSGGNTYYADSVKGRFTISRDNAKNTVYLQMNSLKPEDTAVYYWATVFSVQGWYFGMNYWGQGTQVTVSS | low polyreactivity
30 | QVQLVESGGGLVQAGGSLRLSCAASGIIFWWYAMGWYRQAPGKERELVAAISGTGGSTYYADSVKGRFTISRDNAKNTVYLQMNSLKPEDTAVYYCAKRASPFWRGYDSWGQGTQVTVSS | low polyreactivity
31 | QVQLVESGGGLVQAGGSLRLSCAPSGFTIGYYAMGWYRQAPGKEMELVAGISFSGTSTYYADSVKGRFTFSRDNAKNTVYLLMNSLKPEDTAVYYCNKVYYSAASKHKEYWGQGTQVTVSS | high polyreactivity
32 | QVQLVESGGGLVQAGGSLRLSCAASGYTFIINAMGWYRQAPGKERELVASISGGGTYYADSVKGRFTISRDNAKNTVYLEMNSLKREDTAVYYCNATRRRKYYKYGGDYWGQGTQVTVSS | high polyreactivity
33 | QFQLVESGGGLVQAGGSLRLSCAASGFIFSNNAMGWYRQAPGKDRELVAAISKSGGGTSYADSVKGRFTISRDNAKNTVYLQMNSLKPDDTAVYYCAKEWRKKTDYDYWGQGTQVTVSS | high polyreactivity
34 | QVQLVESGGGLVQAGGSLRLSCAASGSTFVGYTMGWYRQAPGKERELVASITSDGSTNYADSVKGRFTISRDNAKNTVYLQMNSLKREDTAVYYCNADWSSLYVGEFDYWGQGTQVTVSS | low polyreactivity
35 | QVQLVESVGGLVQAGGSLRLSCAASGRIFWKYTMGWYRQAPGKERELVAAIRSAGGSTYYADSVKGRFTISRDNAKNTVYLQMNSLKPEDTAVYYCAAEPSQRYPLSGYYYWGQGTQVTVSS | low polyreactivity
36 | QVQLVESGGGLVQAGGSLRLSCAASGSTFTRYDMGGYRHAPGKERELVAAISKSGGSTYYADSVKGRFTISRDNAKNTVYLQMNSLKPEDTAVYYCARGSTKYHIYSLDYWGQGTQVTVSS | low polyreactivity
37 | QVQLVDSAGGLVQAGGSLRLSCAASGLTFPPNAMGWYRQAPGKEREFVAVISSGGGSTYYADSVKGRFTISRDNAKNTVYLQMNSLKPEDTAVYYCATEYQDGDTEYYYWGQGTQVTVSS | low polyreactivity
38 | QGQLVETGGGLVQAGGILRLSCAASGSIFGDYDMGWYRQDPGKERDLVAAITSSGGMTYYADSVKGRFTISRDNAKNTVYFQMNSLKPVDTAVYYCAAYGYGSKYRYTGYYYWGQGTQVTVSS | low polyreactivity
39 | QVQLVESGGGLVQAGGSLRLSCAATGRIFGGYPMGWYRQAPGKERELVAVISGRGGSTYYADSVKGRFTISRDNAKNTVYLQMNSLIPEDTAVYYCAAVGYYAWTFGYDYWGQGTQVTVSS | high polyreactivity
40 | QVHLVESGVGLFQAGGSLRLSCAASGIIFRYYTMEWYIQAPGKEREVVAVITRGCSTYYADSVMGRFTISRDNAKYSVYLQMNSLKPVDTAVYFCAALRYKLPLGYWGQGTQVTVSS | high polyreactivity
41 | QVQLVESGGGLVQAGGSLRLSCAASGSTFFPYAMGWYRQAPGKERELVAGISSDGGTYYADSVKGRFTISRDNAKNTVYLQMNSLKPEDTAVYYCAALQADRDRYPEFDLMDYWGQGTQVTVSS | low polyreactivity
42 | QVQLVESGGVLVQAGGSLRLSCAASGITFSRNAMGWYRQAPGKEMELVAAITWNGGRTYYADSVKGRFTISRDNAKNTVYLPMNSLKPEATAVYYCAADYDYPDYYAPSWPGYNYWGQVTQVTVSS | low polyreactivity
43 | EVQLVESGGGLVQPGGSLRLSCAASGYIYSRYRMGWYRQAPGKGREFVAAISGGSSTNYADSVKGRFTISRDNSKYTVYLQMNSLRADDTALYYCAAYKIDSDPRVYWGQGTQVTVSS | low polyreactivity
